Measurements from publication doi:10.1101/2021.05.10.443412 (bioRxiv, 2021).
Numbering of substitutions follows the chain as printed.

B1: Mint3 fragment (1-92) (domain or fragment)
chain: MDFPTISRSPSGPPAMDLEGPRDILVPSEDLTPDSQWDPMPGGPGSLSRMELDESSLQELVQQFEALPGDLVGPSPGGAPCPLHIATGHGLA
B2: Mint3 (1-117) (domain or fragment)
chain: MDFPTISRSPSGPPAMDLEGPRDILVPSEDLTPDSQWDPMPGGPGSLSRMELDESSLQELVQQFEALPGDLVGPSPGGAPCPLHIATGHGLASQEIADAHGLLSAEAGRDDLLGLLH
B3: Mint3NT, N-terminal fragment (1-214) of Mint3 (domain or fragment)
chain: MDFPTISRSPSGPPAMDLEGPRDILVPSEDLTPDSQWDPMPGGPGSLSRMELDESSLQELVQQFEALPGDLVGPSPGGAPCPLHIATGHGLASQEIADAHGLLSAEAGRDDLLGLLHCEECPPSQTGPEEPLEPAPRLLQPPEDPDEDSDSPEWVEGASAEQEGSRSSSSSPEPWLETVPLVTPEEPPAGAQSPETLASYPAPQEVPGPCDHED
B4: Mint3NTmut (domain or fragment)
chain: B3 chain with G101A, L102A, L103A, E106A

Key:
Assay in all cases: ITC
[1] = target: factor inhibiting HIF-1 (FIH-1), full-length (human, UniProt Q9NWT6 1-349)
FIH-1 E29A = FIH-1 E29A (human, UniProt Q9NWT6 1-349, Glu29 replaced with Ala)
FIH-1 N171A = FIH-1 N171A (human, UniProt Q9NWT6 1-349, Asn171 replaced with Ala)
FIH-1 D248A = FIH-1 D248A (human, UniProt Q9NWT6 1-349, Asp248 replaced with Ala)
FIH-1 E79A = FIH-1 E79A (human, UniProt Q9NWT6 1-349, Glu79 replaced with Ala)
FIH-1 Y71A = FIH-1 Y71A (human, UniProt Q9NWT6 1-349, Tyr71 replaced with Ala)
FIH-1 K75A = FIH-1 K75A (human, UniProt Q9NWT6 1-349, Lys75 replaced with Ala)
FIH-1 E250A = FIH-1 E250A (human, UniProt Q9NWT6 1-349, Glu250 replaced with Ala)
Chain of FIH-1 E250A (Q9NWT6 whole entry E250A): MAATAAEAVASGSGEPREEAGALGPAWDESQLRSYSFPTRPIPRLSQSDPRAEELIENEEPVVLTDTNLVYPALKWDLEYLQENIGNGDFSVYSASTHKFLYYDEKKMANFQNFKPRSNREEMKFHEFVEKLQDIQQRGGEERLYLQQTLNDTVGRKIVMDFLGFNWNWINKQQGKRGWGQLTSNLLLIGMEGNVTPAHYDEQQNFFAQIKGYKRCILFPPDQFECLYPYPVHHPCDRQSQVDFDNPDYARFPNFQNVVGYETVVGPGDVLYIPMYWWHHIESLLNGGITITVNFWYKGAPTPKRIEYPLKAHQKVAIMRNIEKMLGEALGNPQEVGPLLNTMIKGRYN

Chain of factor inhibiting HIF-1 (FIH-1), full-length (Q9NWT6 whole entry): as the sequence (Q9NWT6 whole entry E250A) above, with A250E counted along it
Chain of FIH-1 E79A (Q9NWT6 whole entry E79A): as the sequence (Q9NWT6 whole entry E250A) above, with E79A, A250E counted along it
Chain of FIH-1 E29A (Q9NWT6 whole entry E29A): as the sequence (Q9NWT6 whole entry E250A) above, with E29A, A250E counted along it
Chain of FIH-1 D248A (Q9NWT6 whole entry D248A): as the sequence (Q9NWT6 whole entry E250A) above, with D248A, A250E counted along it
Chain of FIH-1 Y71A (Q9NWT6 whole entry Y71A): as the sequence (Q9NWT6 whole entry E250A) above, with Y71A, A250E counted along it
Chain of FIH-1 K75A (Q9NWT6 whole entry K75A): as the sequence (Q9NWT6 whole entry E250A) above, with K75A, A250E counted along it
Chain of FIH-1 N171A (Q9NWT6 whole entry N171A): as the sequence (Q9NWT6 whole entry E250A) above, with N171A, A250E counted along it

Binder	stoichiometry N [1]	Kd [1]	dH [1]	other results
B1	~0.5			
SQEIADAHGLLSAEAGRDDLLGLLH [short peptide of Mint3 (93-117)]	~0.5	3000 ± 600 nM		
B2	~0.5	650 ± 70 nM		
B3	0.48 ± 0.02		-32.2 ± 0.7 kcal/mol	binding result (FIH-1 E29A): binds; binding result (FIH-1 N171A): binds; binding result (FIH-1 D248A): binds; binding result (FIH-1 E79A): binds; binding result (FIH-1 Y71A): binds; binding result (FIH-1 K75A): binds; binding result (FIH-1 E250A): binds
B4	~0.5	1310 nM	-13.9 kcal/mol	
